{"source": "paper PMC2841223", "about": "(Journal of structural biology, 2009)", "binders": {"B1": {"name": "ILK ankyrin repeat domain (ILK 1-174, from thrombin-cleaved GST-ILK 1-192) (domain or fragment, human, UniProt Q13418 1-174, looked up)", "chain": "MDDIFTQCREGNAVAVRLWLDNTENDLNQGDDHGFSPLHWACREGRSAVVEMLIMRGARINVMNRGDDTPLHLAASHGHRDIVQKLLQYKADINAVNEHGNVPLHYACFWGQDQVAEDLVANGALVSICNKYGEMPVDKAKAPLRELLRERAEKMGQNLNRIPYKDTFWKGTTR"}, "B2": {"name": "PINCH2 LIM1 domain (PINCH2 6-68), His tag removed (domain or fragment, human, UniProt Q7Z4I7-3 6-68, looked up)", "chain": "ANAVCQRCQARFSPAERIVNSNGELYHEHCFVCAQCFRPFPEGLFYEFEGRKYCEHDFQMLFA"}}, "key": {"[1]": {"target": "B2", "test": "crystal structure"}, "[2]": {"target": "T1, ILK ankyrin repeat domain W110A (human, UniProt Q13418 1-174, W110A)", "T1 sequence (looked up)": "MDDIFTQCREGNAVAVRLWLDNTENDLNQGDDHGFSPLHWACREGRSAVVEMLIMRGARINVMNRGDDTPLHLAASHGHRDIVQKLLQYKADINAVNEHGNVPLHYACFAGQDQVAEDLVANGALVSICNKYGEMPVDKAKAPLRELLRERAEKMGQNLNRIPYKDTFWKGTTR", "test": "pull-down"}, "[3]": {"target": "B1", "test": "pull-down"}, "[4]": {"target": "B1", "test": "pull-down", "remark": "listed apart in the source"}, "[5]": {"target": "B1", "test": "pull-down", "remark": "listed apart in the source"}}, "note": "Read-outs that look alike come from different tables or passages of the source.", "data": [{"binder": "B1", "values": [{"measurement": "stoichiometry N", "setting": "[1]", "result": 1}]}, {"binder": "His-tagged PINCH2 LIM1 (PINCH2 6-68) (domain or fragment, human, UniProt Q7Z4I7-3 6-68, looked up) ANAVCQRCQARFSPAERIVNSNGELYHEHCFVCAQCFRPFPEGLFYEFEGRKYCEHDFQMLFA", "values": [{"measurement": "binding result", "setting": "[2]", "result": "binds"}]}, {"binder": "His-tagged PINCH2 LIM1 R12A (domain or fragment, human, UniProt Q7Z4I7-3 6-68, looked up) ANAVCQACQARFSPAERIVNSNGELYHEHCFVCAQCFRPFPEGLFYEFEGRKYCEHDFQMLFA", "values": [{"measurement": "binding result", "setting": "[3]", "result": "binds"}]}, {"binder": "B2", "values": [{"measurement": "IC50", "setting": "[4]", "result": 2.3, "unit": "µM"}, {"measurement": "IC50", "setting": "[5]", "result": 4.4, "unit": "µM"}]}, {"binder": "soluble PINCH1 LIM1 domain, His tag removed (domain or fragment) ASATCERCKGGFAPAEKIVNSNGELYHEQCFVCAQCFQQFPEGLFYEFEGRKYCEHDFQMLFA", "values": [{"measurement": "IC50", "setting": "[4]", "result": 2.9, "unit": "µM"}]}]}
